In patent US5434073:

Columns and labels:
[1] = molecular target: human thrombin (Sigma) (human) (UniProt P00734)
[2] = molecular target: plasminogen (Sigma P-7397)

Substance	specific activity in anti-thrombin units (inhibition of thrombin catalysed hydrolysis of CHROMOZYM TH) [1]	streptokinase activity by the S2251 chromogenic assay [2]
hirudin-IEGR-hirudin fusion protein	588 U/mg	–
recombinant hirudin sample	6600 U/mg	–
thrombin cleavable streptokinase-streptokinase fusion protein	–	18400 u/ml
